The values that follow come from patent US20150216779A1, “COMPOSITIONS FOR TARGETED ANTI-AGING THERAPY” (THE TEXAS A&M UNIVERSITY SYSTEM, priority 2012, published 2015).

Data set [1] is described as follows: Turbidity after heating at 90° C. for 30 seconds (plate heat exchanger). It is filed as physicochemical. The note with it: 1 mg/ml lactoferrin in 10 mM potassium acetate, pH 6.3; heated at 90° C. for 30 seconds. The method, then: Formulations containing heat-stabilized lactoferrin (1 mg/ml) without added branched-chain amino acids (Formulation 1) and heat-stabilized lactoferrin (1 mg/ml) with added branched-chain amino acids (2 mg/ml) (Formulation 2) were dissolved in the buffered solution (10 mM potassium acetate, pH 6.3) to make 4 liters solution. The two liquid formulations were heated by using a plate heat exchanger at 90° C. for 30 seconds, and cooled to 5° C., after which they were stored in sterilized bottles, and bubbled with carbon dioxide (CO2) in an aseptic room. The two resultant liquid formulations with a zinc ion concentration of 2.4 mg per 100 ml had excellent taste and appearance. […] Lactoferrin aggregation occurred at pH 6.3, which corresponded to its high thermal instability.

For data set [2] the following is noted: heat-treated at 63 and 85° C.; cited from earlier work.

B1: lactoferrin: iron-binding glycoprotein of the transferrin family present in milk; unstabilized buffered solution at 1 mg/ml (protein, UniProt P24627 20-708, looked up)
Lactotransferrin: APRKNVRWCTISQPEWFKCRRWQWRMKKLGAPSITCVRRAFALECIRAIAEKKADAVTLDGGMVFEAGRDPYKLRPVAAEIYGTKESPQTHYYAVAVVKKGSNFQLDQLQGRKSCHTGLGRSAGWIIPMGILRPYLSWTESLEPLQGAVAKFFSASCVPCIDRQAYPNLCQLCKGEGENQCACSSREPYFGYSGAFKCLQDGAGDVAFVKETTVFENLPEKADRDQYELLCLNNSRAPVDAFKECHLAQVPSHAVVARSVDGKEDLIWKLLSKAQEKFGKNKSRSFQLFGSPPGQRDLLFKDSALGFLRIPSKVDSALYLGSRYLTTLKNLRETAEEVKARYTRVVWCAVGPEEQKKCQQWSQQSGQNVTCATASTTDDCIVLVLKGEADALNLDGGYIYTAGKCGLVPVLAENRKSSKHSSLDCVLRPTEGYLAVAVVKKANEGLTWNSLKDKKSCHTAVDRTAGWNIPMGLIVNQTGSCAFDEFFSQSCAPGADPKSRLCALCAGDDQGLDKCVPNSKEKYYGYTGAFRCLAEDVGDVAFVKNDTVWENTNGESTADWAKNLNREDFRLLCLDGTRKPVTEAQSCHLAVAPNHAVVSRSDRAAHVKQVLLHQQALFGKNGKNCPDKFCLFKSETKNLLFNDNTECLAKLGGRPTYEEYLGTEYVTAIANLKKCSTSPLLEACAFLTR
Regarding B1, in data set [1], the “appearance of solution after heating (turbidity / transparency)” value was “turbid”. For the same molecule, the “immunological properties after heat treatment” value in data set [2] was “loses its immunological properties”.
